Source: the supplement of paper PMC10724198
± gives the standard deviation of the averaged measurements.

tested on: Saccharomyces cerevisiae; experiment: protein stability index of tFT-peptide fusion (C-terminal peptide) (PSI (0-1 scale)); higher = more stable (slower turnover); details: genetic background: wild type; temperature: 30 C
Method: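 Multiplexed protein stability (MPS) profiling in S. cerevisiae. Random 12-aa peptides (tFT-X12 library) are fused to the C-terminus of a sfGFP-mCherry tandem fluorescent timer, after mCherry and a GGGS linker. Cells are FACS-sorted into 8 mCherry/sfGFP bins and deep-sequenced. The protein stability index (PSI) is the read-weighted bin average, scaled from 0 (unstable) to 1 (stable). Only peptides with >10 reads are reported; cells were grown at 30 °C in SC-His with glucose.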
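Also: PSI is a weighted mean of sequencing reads over stability bins, variants kept only with over 10 reads, mCherry proximal and sfGFP distal, peptide attached via GGGS linker.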

In order of rising protein stability index:
1. DKKHRAPGIKIV  0.5008 ± 0.0018
2. DLSCCVFLCLFF  0.513 ± 0.044
3. CWGGGGLWLLEV  0.515 ± 0.012
4. CWGGWGLWLLEV  0.516 ± 0.023
5. CSERGQVCAVVY  0.553 ± 0.066
6. DGCRCQSMSKIS  0.553 ± 0.18
7. CYIFFFSRELFY  0.5685 ± 0.0045
8. DMGGLKACRGVG  0.5695 ± 0.0028
9. CVDGLFCCLVFW  0.571 ± 0.028
10. CSRPSLPIYYCS  0.581 ± 0.028
11. CRGILVGVWRCG  0.5856 ± 0.0014
12. CRTPQICASCLC  0.59 ± 0.015
13. DRPRPLPTPLPP  0.5905 ± 0.0021
14. CSEGSSFVDKRG  0.594 ± 0.039
15. DVFLFPGVYFRM  0.594 ± 0.012
16. CTRRRLLVPRVK  0.599 ± 0.028
17. CVGTDVWQASSR  0.6 ± 0.057
18. CSVCPGYLFGCA  0.601 ± 0.025
19. CVFLGRMSFLAF  0.602 ± 0.03
20. DAGVDVGVGTHD  0.605 ± 0.041
21. DLGIFVSQQIEV  0.6065 ± 0.0048
22. DPDPNHATGKIC  0.616 ± 0.014
23. CSRFGRLCYNGE  0.618 ± 0.023
24. DRMYDELFTKCC  0.619 ± 0.031
25. CSLRSSGLGFKQ  0.62 ± 0.072
26. DSTMWDALSVCV  0.621 ± 0.026
27. CPSPPPIPLTLS  0.6221 ± 0.001
28. CVVAISGLSHFL  0.623 ± 0.015
29. DGLGLLVGAGVG  0.623 ± 0.085
30. DQKSGCPVRIYR  0.623 ± 0.029
31. DSAWSWTLLFVG  0.63 ± 0.026
32. CVWCSGRSPCYV  0.634 ± 0.047
33. CTGLEGGGLPFR  0.636 ± 0.12
34. CPPPPPPPRPPP  0.639 ± 0.0095
35. DRQRVGYRGPPH  0.639 ± 0.096
36. CTVGWNLVFQFG  0.641 ± 0.08
37. DKNRNKKKKYER  0.641 ± 0.038
38. DCRELCQSEVMG  0.643 ± 0.1
39. DGGVPGVMVVGE  0.644 ± 0.024
40. DCSCIYGHRVVV  0.6466 ± 0.0038
41. DNAFATAYWIVV  0.647 ± 0.054
42. DVGSPFSISVQS  0.647 ± 0.045
43. DARTLTECTCRG  0.648 ± 0.072
44. DEFCSHSLAGSS  0.649 ± 0.024
45. DFPIEEILGLVG  0.65 ± 0.05
46. DGGAGGLGLLGG  0.651 ± 0.0081
47. DMTVICDVAGQT  0.652 ± 0.019
48. CTGVFTGRCEGG  0.653 ± 0.028
49. DPPLRPSSLPPP  0.653 ± 0.0084
50. DLSNVITKMFVI  0.6542 ± 0.0036
51. DVRNVCNISDEV  0.654 ± 0.022
52. DETELTQRTKRV  0.656 ± 0.017
53. CRSLSAPLPGSF  0.657 ± 0.021
54. DPISNVDVTKIR  0.6571 ± 0.0044
55. CTRHNGTCRVKA  0.658 ± 0.017
56. DFQRPGSFVFNG  0.658 ± 0.048
57. DVLLRGAVQPIC  0.659 ± 0.0098
58. CQFPSLPLPSFM  0.66 ± 0.032
59. DSKRIQSRLYYS  0.66 ± 0.027
60. DSRSPSTTLIPL  0.6623 ± 0.0018
61. DMTCSMEQHEDN  0.663 ± 0.019
62. DRVFLVDMGVMW  0.6632 ± 0.0014
63. CWSCLRGYRFQT  0.664 ± 0.028
64. DPARNDTTTETI  0.666 ± 0.027
65. DSIVHSFYIPLL  0.666 ± 0.048
66. CVAAISGESLLR  0.667 ± 0.021
67. DKKPVQVIIIRK  0.667 ± 0.1
68. DDGGQPKVLLCV  0.6688 ± 0.0011
69. DVAYSSSNAVHR  0.669 ± 0.045
70. DASLTSGVARST  0.67 ± 0.042
71. DPGGLSNYSRAS  0.67 ± 0.036
72. CSFCVLGPGLHL  0.672 ± 0.047
73. CTQCCSGARLFM  0.672 ± 0.081
74. DLSLQSLRSPIT  0.672 ± 0.022
75. DWSGTISVSSLR  0.672 ± 0.1
76. DDGRVSLGEQSG  0.673 ± 0.036
77. DPAKRTLTRSRR  0.673 ± 0.0079
78. CRGSGGRVVLVG  0.674 ± 0.041
79. DFEVGPMGGFRC  0.674 ± 0.057
80. DWTNLTVITGDT  0.674 ± 0.035
81. CQDDGTAKRHKG  0.676 ± 0.061
82. DAVRRNSAWFSF  0.677 ± 0.025
83. DRGGDVGRCAGF  0.677 ± 0.011
84. CSVPPPLPPTTF  0.683 ± 0.073
85. DLVLVSSQMPFA  0.683 ± 0.039
86. DQMVILSHYSVR  0.683 ± 0.038
87. CVIGRDGTDLWV  0.685 ± 0.0089
88. DNHGWKVEGRLL  0.686 ± 0.015
89. DPAASNTTTRRL  0.686 ± 0.064
90. CRTFSALVDRFT  0.687 ± 0.046
91. DIQINENIYKNK  0.687 ± 0.048
92. DPPSVPSPLPTS  0.689 ± 0.016
93. CVWKWFSFSGGG  0.69 ± 0.021
94. CVPYLGEFTRNG  0.691 ± 0.038
95. DNCIANLESGSL  0.691 ± 0.008
96. CVAACSGHAAVG  0.692 ± 0.017
97. DEGFSRSGLLLK  0.6921 ± 0.003
98. DLLTRAYPWPAE  0.692 ± 0.024
99. DGGALGVKGCDR  0.694 ± 0.054
100. DFRAGPLPCRPP  0.6952 ± 0.0041
101. DGSIGASPGRGL  0.695 ± 0.015
102. DQDAPNRPVDSS  0.695 ± 0.018
103. DTDHSSNCELPG  0.696 ± 0.083
104. DGRTYGHYKVVA  0.697 ± 0.027
105. DKERRSKNRERR  0.698 ± 0.07
106. DDFSHVEVFERV  0.7 ± 0.062
107. CRKPRPLSFPLV  0.701 ± 0.043
108. CTFCLGSATVRT  0.702 ± 0.04
109. CWGLRVMGGTGR  0.702 ± 0.013
110. DISSSILEIFTS  0.7031 ± 0.0032
111. DRYSVGCGVSEG  0.7038 ± 0.002
112. CTISHSGHSGST  0.706 ± 0.058
113. DTSGNQLQDPDI  0.706 ± 0.029
114. CRFLDVSSWILI  0.707 ± 0.065
115. DLRHLLVPVPRI  0.7066 ± 0.0022
116. DQVGWVAGVDAR  0.707 ± 0.048
117. CRAPSPRPWRPH  0.708 ± 0.062
118. CRVNSVRPVYPS  0.7079 ± 0.0049
119. CSPSYTCRIISF  0.7076 ± 0.006
120. CPLPPSTPPLRL  0.709 ± 0.0098
121. DNKGKDEESERR  0.709 ± 0.038
122. DAWRAGESTEGG  0.71 ± 0.027
123. DGGAGWLGLLGG  0.713 ± 0.034
124. DGVRGDVVTGYL  0.7131 ± 0.0057
125. DIAYPRITDSRC  0.714 ± 0.045
126. DLTITFYKSGQL  0.715 ± 0.032
127. DPHRTRPRITLP  0.715 ± 0.044
128. DRLPRHLPSLLP  0.715 ± 0.037
129. DTGGGPQTSRWD  0.715 ± 0.17
130. DSSPIESAVAPS  0.716 ± 0.023
131. DHLQGRPDITDI  0.72 ± 0.09
132. DCVRMLREGAGW  0.721 ± 0.079
133. CRTSRSSSLPPY  0.7218 ± 0.0054
134. DSVFTKALEPAW  0.722 ± 0.04
135. DGSKRDWFYNSA  0.725 ± 0.059
136. DVVLVSPCGQMW  0.725 ± 0.21
137. DEPGTEGAKPWR  0.727 ± 0.074
138. CPPARLLPHPPA  0.733 ± 0.013
139. CSSACPPPPPAT  0.733 ± 0.014
140. DVVGGCEKWWER  0.734 ± 0.049
141. DVGFGWGCGVGG  0.736 ± 0.014
142. DAGWTRGGEGVW  0.739 ± 0.032
143. CPLPGSRHLAPV  0.742 ± 0.068
144. DRNKRDERTSEE  0.744 ± 0.026
145. CRRSCPRLTVTR  0.746 ± 0.015
146. DFGYSLRIIRSE  0.746 ± 0.0099
147. CPPCPSAPPPLP  0.752 ± 0.07
148. DVGFGWGGGVGG  0.76 ± 0.014
149. DCLSVWCSIPGA  0.775 ± 0.086
150. CPPFLTPRLAPA  0.778 ± 0.2
151. DGGVGGGAPRVR  0.78 ± 0.14
152. DCRPNIRSRVSG  0.785 ± 0.18
153. DVESGRVDLGEE  0.787 ± 0.15
154. DFLDPLQDEWPC  0.805 ± 0.039
155. DLIYRLHTANWR  0.809 ± 0.034
